Measured values reported in patent publication US20250188161A1 (UNIVERSITE CATHOLIQUE DE LOUVAIN, published 2025).
Several values for one entry are separate records, joined by “and”; a condition that tells them apart may be missing. Equal entries are not always repeated. Values belong to the binder of their own block, whether it stands above or below them.

Experiments:
[1] = target: T1, mouse latent TGF-β1 on transfected HEK-293T cells (mouse, UniProt P04202 30-278; P04202 279-390); assay: cell-based or functional assay
[2] = target: T2, human latent TGF-β1 (human, UniProt P01137 30-278; P01137 279-390); assay: SPR (Biacore 3000), human latent TGFβ1 amine-coupled on CM5, antibody injected
T2 construct: signal peptide 1-29 left out; also called human latent TGF-β1 (immobilised / coated protein)

[3] = target: mouse TGF-β1 L208A single Ala-mutant on HEK-293T cells (mouse, UniProt P04202 30-278; P04202 279-390); assay: Ala-scan, flow cytometry on HEK-293T cells with mouse GARP and HA-tagged single Ala-mutant
From the text: (§1) To perform “Ala-scan” analyses, we co-transfected plasmids encoding mouse or human GARP and the single Ala-mutants of mouse or human TGF-β1 in HEK-293T cells, and analyzed binding by TGF-β1-activating and non-activating mAbs using flow cytometry (FIG. 3C).

[4] = target: mouse TGF-β1 D212A single Ala-mutant on HEK-293T cells (mouse, UniProt P04202 30-278; P04202 279-390); assay: as above
From the text: as §1

[5] = target: T3, mouse latent TGF-β1 (mouse, UniProt P04202 30-278; P04202 279-390); assay: SPR (Biacore 3000), mouse latent TGFβ1 amine-coupled on CM5 (about 500 RU), antibody at 3-100 nM
T3 construct: signal peptide 1-29 left out; also called murine latent TGF-β1 (immobilised protein)
Protocol: A CM5 chip was immobilized with approximately 500RU human latent TGFβ1 and mouse latent TGFβ1 in sodium acetate buffer pH4.5 (GE Healthcare, #BR100350) using amine coupling and consuming HBS-EP buffer. The flow was set to 30 μl/min with the “kinject” injection mode and a regeneration injection of 10 mM glycine pH1.5.

[6] = target: T1, mouse latent TGF-β1 on transfected …; assay: flow cytometry, HEK-293T cells co-transfected with mGarp and the HA-tagged TGF-β1 construct
[7] = target: T4, T201A; assay: Ala-scan, flow cytometry, HEK-293T cells with GARP and the HA-tagged Ala-mutant; residual binding in % of WT
T4 construct: co-expressed with GARP; also called mouse TGF-β1 T201A single Ala-mutant on HEK-293T cells
From the text: as §1

[8] = target: T5, G211A; assay: as above
T5 construct: co-expressed with GARP; also called mouse TGF-β1 G211A single Ala-mutant on HEK-293T cells
From the text: as §1

[9] = target: T6, G213A; assay: as above
T6 construct: co-expressed with GARP; also called mouse TGF-β1 G213A single Ala-mutant on HEK-293T cells
From the text: as §1

[10] = target: T7, I214A; assay: as above
T7 construct: co-expressed with GARP; also called mouse TGF-β1 I214A single Ala-mutant on HEK-293T cells
From the text: as §1

[11] = target: T8, Q215A; assay: as above
T8 construct: co-expressed with GARP; also called mouse TGF-β1 Q215A single Ala-mutant on HEK-293T cells
From the text: as §1

[12] = target: T9, G216A; assay: as above
T9 construct: co-expressed with GARP; also called mouse TGF-β1 G216A single Ala-mutant on HEK-293T cells
From the text: as §1

[13] = target: T10, F217A; assay: as above
T10 construct: co-expressed with GARP; also called mouse TGF-β1 F217A single Ala-mutant on HEK-293T cells
From the text: as §1

[14] = target: T11, R218A; assay: as above
T11 construct: co-expressed with GARP; also called mouse TGF-β1 R218A single Ala-mutant on HEK-293T cells
From the text: as §1

[15] = target: T12, F219A; assay: as above
T12 construct: co-expressed with GARP; also called mouse TGF-β1 F219A single Ala-mutant on HEK-293T cells
From the text: as §1

[16] = target: T13, S220A; assay: as above
T13 construct: co-expressed with GARP; also called mouse TGF-β1 S220A single Ala-mutant on HEK-293T cells
From the text: as §1

[17] = target: T14, G202A; assay: as above
T14 construct: co-expressed with GARP; also called mouse TGF-β1 G202A single Ala-mutant on HEK-293T cells
From the text: as §1

[18] = target: T15, V203A; assay: as above
T15 construct: co-expressed with GARP; also called mouse TGF-β1 V203A single Ala-mutant on HEK-293T cells
From the text: as §1

[19] = target: T16, V204A; assay: as above
T16 construct: co-expressed with GARP; also called mouse TGF-β1 V204A single Ala-mutant on HEK-293T cells
From the text: as §1

[20] = target: T17, R205A; assay: as above
T17 construct: co-expressed with GARP; also called mouse TGF-β1 R205A single Ala-mutant on HEK-293T cells
From the text: as §1

[21] = target: T18, Q206A; assay: as above
T18 construct: co-expressed with GARP; also called mouse TGF-β1 Q206A single Ala-mutant on HEK-293T cells
From the text: as §1

[22] = target: T19, W207A; assay: as above
T19 construct: co-expressed with GARP; also called mouse TGF-β1 W207A single Ala-mutant on HEK-293T cells
From the text: as §1

[23] = target: T20, N209A; assay: as above
T20 construct: co-expressed with GARP; also called mouse TGF-β1 N209A single Ala-mutant on HEK-293T cells
From the text: as §1

[24] = target: T21, Q210A; assay: as above
T21 construct: co-expressed with GARP; also called mouse TGF-β1 Q210A single Ala-mutant on HEK-293T cells
From the text: as §1

[25] = target: T22, mouse latent TGF-β2 on transfected 293T cells (mouse, UniProt P27090 21-414); assay: flow cytometry, 293T cells transfected with GARP and HA-TGF-β2, GAM-FITC as secondary reagent; expression shown by anti-HA staining
T22 construct: whole, on cells; also called murine latent TGF-β2; HA-tagged TGF-β2
T22 sequence (looked up): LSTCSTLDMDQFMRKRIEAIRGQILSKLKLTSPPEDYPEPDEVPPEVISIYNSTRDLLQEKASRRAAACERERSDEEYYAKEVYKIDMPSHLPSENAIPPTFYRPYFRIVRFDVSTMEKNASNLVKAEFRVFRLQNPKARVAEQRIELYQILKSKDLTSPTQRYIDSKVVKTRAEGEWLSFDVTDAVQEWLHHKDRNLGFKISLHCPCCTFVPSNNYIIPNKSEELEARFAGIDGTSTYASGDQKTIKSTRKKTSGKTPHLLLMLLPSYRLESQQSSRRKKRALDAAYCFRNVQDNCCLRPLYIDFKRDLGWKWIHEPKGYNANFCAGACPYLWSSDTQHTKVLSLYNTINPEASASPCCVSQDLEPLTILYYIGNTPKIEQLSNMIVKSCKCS
From the text: (§2) Flow cytometry was used to ensure that LMT-12 binds specifically to mouse latent TGF-β1 and not to mouse latent TGF-β2 and mouse latent TGF-β3. Briefly, 293T cells were transfected with plasmids encoding HA-tagged TGF-β1, β2, or β3, with a plasmid encoding GARP. They were then stained with the indicated concentrations of LMT-12 mIgG1 or anti-HA mIgG1 antibody and thereafter with goat anti-mouse coupled to FITC (GAM-FITC) as secondary reagent. Using flow cytometry, histograms were gated on live cells as determined with a viability dye (Bioscience, cat. 65-0865-14).

[26] = target: T23, mouse latent TGF-β3 on transfected 293T cells (mouse, UniProt P17125 24-410); assay: flow cytometry, 293T cells transfected with GARP and HA-TGF-β3, GAM-FITC as secondary reagent; anti-HA staining gives only a low tail
T23 construct: whole, on cells; also called murine latent TGF-β3; HA-tagged TGF-β3
T23 sequence (looked up): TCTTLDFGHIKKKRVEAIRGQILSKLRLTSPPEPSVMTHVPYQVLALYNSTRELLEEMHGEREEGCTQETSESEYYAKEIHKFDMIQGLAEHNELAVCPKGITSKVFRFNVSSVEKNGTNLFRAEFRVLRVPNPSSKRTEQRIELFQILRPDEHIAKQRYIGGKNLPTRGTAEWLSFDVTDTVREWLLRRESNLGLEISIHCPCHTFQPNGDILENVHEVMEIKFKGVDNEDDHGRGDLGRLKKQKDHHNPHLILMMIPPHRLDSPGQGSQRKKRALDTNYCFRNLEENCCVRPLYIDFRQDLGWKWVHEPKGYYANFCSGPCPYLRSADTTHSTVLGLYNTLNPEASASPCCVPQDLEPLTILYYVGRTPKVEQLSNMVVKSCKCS
From the text: as §2

T3 sequence (P04202 30-278, chain 1 of 2): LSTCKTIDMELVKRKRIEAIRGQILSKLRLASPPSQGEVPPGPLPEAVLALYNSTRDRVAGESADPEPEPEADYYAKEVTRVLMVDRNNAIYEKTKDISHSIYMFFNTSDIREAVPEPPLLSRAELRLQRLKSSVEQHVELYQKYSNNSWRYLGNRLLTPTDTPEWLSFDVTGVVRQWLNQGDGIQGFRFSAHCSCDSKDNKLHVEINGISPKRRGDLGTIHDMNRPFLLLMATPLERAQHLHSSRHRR
T3 sequence (P04202 279-390, chain 2 of 2): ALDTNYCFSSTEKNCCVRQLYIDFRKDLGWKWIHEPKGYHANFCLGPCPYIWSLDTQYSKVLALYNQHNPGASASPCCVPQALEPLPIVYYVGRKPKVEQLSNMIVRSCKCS
T1 sequence (P04202 30-278, chain 1 of 2): as the sequence (P04202 30-278, chain 1 of 2) above
T1 sequence (P04202 279-390, chain 2 of 2): as the sequence (P04202 279-390, chain 2 of 2) above
T12 sequence (HA-tagged latent TGF-β1, as listed by the source F219A F219A limits assumed): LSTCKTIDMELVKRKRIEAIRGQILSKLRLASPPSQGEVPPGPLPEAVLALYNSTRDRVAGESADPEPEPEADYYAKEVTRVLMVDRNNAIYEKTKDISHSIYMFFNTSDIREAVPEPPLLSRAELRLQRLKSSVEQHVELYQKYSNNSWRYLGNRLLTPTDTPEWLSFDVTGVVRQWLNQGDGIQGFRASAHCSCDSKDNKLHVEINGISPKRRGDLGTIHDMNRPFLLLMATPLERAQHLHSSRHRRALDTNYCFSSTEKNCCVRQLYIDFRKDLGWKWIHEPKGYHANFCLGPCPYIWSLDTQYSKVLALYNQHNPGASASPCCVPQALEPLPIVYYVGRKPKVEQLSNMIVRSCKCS
T16 sequence (HA-tagged latent TGF-β1, as listed by the source V204A V204A limits assumed): as the sequence (HA-tagged latent TGF-β1, as listed by the source F219A F219A limits assumed) above, with V175A, A190F counted along it
T7 sequence (HA-tagged latent TGF-β1, as listed by the source I214A I214A limits assumed): as the sequence (HA-tagged latent TGF-β1, as listed by the source F219A F219A limits assumed) above, with I185A, A190F counted along it
T6 sequence (HA-tagged latent TGF-β1, as listed by the source G213A G213A limits assumed): as the sequence (HA-tagged latent TGF-β1, as listed by the source F219A F219A limits assumed) above, with G184A, A190F counted along it
T9 sequence (HA-tagged latent TGF-β1, as listed by the source G216A G216A limits assumed): as the sequence (HA-tagged latent TGF-β1, as listed by the source F219A F219A limits assumed) above, with G187A, A190F counted along it
T13 sequence (HA-tagged latent TGF-β1, as listed by the source S220A S220A limits assumed): as the sequence (HA-tagged latent TGF-β1, as listed by the source F219A F219A limits assumed) above, with A190F, S191A counted along it
T15 sequence (HA-tagged latent TGF-β1, as listed by the source V203A V203A limits assumed): as the sequence (HA-tagged latent TGF-β1, as listed by the source F219A F219A limits assumed) above, with V174A, A190F counted along it
T19 sequence (HA-tagged latent TGF-β1, as listed by the source W207A W207A limits assumed): as the sequence (HA-tagged latent TGF-β1, as listed by the source F219A F219A limits assumed) above, with W178A, A190F counted along it
mouse TGF-β1 L208A single Ala-mutant on HEK-293T cells, sequence (P04202 30-278 L208A, chain 1 of 2): as the sequence (P04202 30-278, chain 1 of 2) above, with L179A counted along it
mouse TGF-β1 L208A single Ala-mutant on HEK-293T cells, sequence (P04202 279-390, chain 2 of 2): as the sequence (P04202 279-390, chain 2 of 2) above
T17 sequence (HA-tagged latent TGF-β1, as listed by the source R205A R205A limits assumed): as the sequence (HA-tagged latent TGF-β1, as listed by the source F219A F219A limits assumed) above, with R176A, A190F counted along it
T14 sequence (HA-tagged latent TGF-β1, as listed by the source G202A G202A limits assumed): as the sequence (HA-tagged latent TGF-β1, as listed by the source F219A F219A limits assumed) above, with G173A, A190F counted along it

- EC50, TGF-β1 luciferase reporter assay in HEK-293T cells expressing GARP:TGF-β1 [1]: 76 ng/ml and 0.5 nM
- binding result [3]: no binding
- binding result [4]: no binding
- Amplitude R0 (RU) [5]: 241 RU
- Kd [5]: 0.633 nM
- koff [5]: 0.000718 s⁻¹
- kon [5]: 1.14e+06 M⁻¹ s⁻¹
- % binding relative to WT TGF-β1 (100 %) [6]: 100%
- binding result [7]: binds
- binding result [8]: binds
- binding result [9]: binds
- binding result [10]: binds
- binding result [11]: binds
- binding result [12]: binds
- binding result [13]: binds
- binding result [14]: binds
- binding result [15]: binds
- binding result [16]: binds
- binding result [17]: binds
- binding result [18]: binds
- binding result [19]: binds
- binding result [20]: binds
- binding result [21]: binds
- binding result [22]: binds
- binding result [23]: binds
- binding result [24]: binds
B1: LMT-2 (6D12) (antibody, V domains shown)
VH: EVQLVESGGGLVQPGGSLRLSCAASGFTFSNYGVHWVRQAPGKGLEWVSHISAAGISRYYADAVKGRFTMSRDNGKNTLYLQMNGLKSEDTAVYYCAKDRIRSSYEYDSWGQGTQVTVSS
VL: LPVLTQLSSMSGSPGQTVTITCTGSSSNIGGGYYLSWYQQLPGTAPKLLIYNANNRASGVPNRFSGSKSGNLASLTITGLQAEDEADYYCGCYDSSLSTGYVFGGGTKLTVL
notes: also called LMT-2 (hIgG1)
- binding result [2]: no binding (tested: six concentrations, 3 nM to 100 nM)

- binding result [25]: no binding (tested: 20.00 µg/ml)
- binding result [26]: no binding (tested: 20.00 µg/ml)
B2: LMT-12 mIgG1 (antibody, V domains shown)
VH: EVQLVESGGGLVQPGGSLRLSCAASGFTFSSYYMYWVRQAPGKGLEWVSGTSIGGGSTWYADSVKGRFTISRDNAKNTLYLQMNNLKSEDTAVYYCAKDLNSRSYKGMGDWGQGTQVTVSS
VL: QPALTQLSSMSGSPGQTVTITCTGSSSNIGGGYYLNWYQQLPGAAPKLVIYNANNRASGVPDRFSGSKSGNLASLTITGLQAEDEAVYFCGCYDSSLSSVVFGGGTHLTVL
notes: also called mAb LMT-12
